Experiment [1] has as its target T1, biotinylated recombinant human BCMA (Acro Biosystems Cat: #BC7-H82F0) (human, UniProt Q02223 1-54, biotinylated).
T1 construct: Bought reagent; Detected with fluorescent streptavidin
T1 sequence (looked up): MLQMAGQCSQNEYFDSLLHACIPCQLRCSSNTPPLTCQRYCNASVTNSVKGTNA
The experiment in a line: flow cytometry; CTX120 cells stained with biotinylated BCMA and fluorescent streptavidin. Here is the method:
The resultant genetically engineered T cells were characterized for incorporation of the desired gene edits: loss of TCR, loss of MHC I expression, and expression of an anti-BCMA CAR. Approximately one week after gene-editing, allogeneic T cells were assessed for surface expression of TCR, β2M, and anti-BCMA CAR using flow cytometry. The allogeneic cells were stained with biotinylated recombinant human BCMA (Acro Biosystems Cat: #BC7-H82F0) and tagged with fluorescent streptavidin and with fluorescent antibodies targeting cell surface markers. The percentage of cells that were TCR⁻, β2M⁻, and anti-BCMA CAR⁺ was determined. Nine lots of CTX120 cells were prepared from eight healthy donors.

In experiment [2] the target is T2, mouse BCMA (mouse, UniProt O88472 1-49, limits assumed).
T2 construct: also called murine BCMA
T2 chain (looked up): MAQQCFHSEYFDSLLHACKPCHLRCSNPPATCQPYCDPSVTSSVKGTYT
The experiment in a line: not described (statement within Example 5).

The results in this text go back to patent US20230220059A1 (CRISPR THERAPEUTICS, published 2023).

B1: anti-BCMA CAR (CTX-166b) expressed on CTX120 cells (other)
chain: QVQLVQSGAELKKPGASVKVSCKASGNTLTNYVIHWVRQAPGQRLEWMGYILPYNDLTKYSQKFQGRVTITRDKSASTAYMELSSLRSEDTAVYYCTRWDWDGFFDPWGQGTTVTVSSGGGGSGGGGSGGGGSEIVMTQSPATLSVSPGERASISCRASQSLVHSNGNTHLHWYQQRPGQAPRLLIYSVSNRFSEVPARFSGSGSGTDFTLTISSVESEDFAVYYCSQTSHIPYTFGGGTKLEIKSAAAFVPVFLPAKPTTTPAPRPPTPAPTIASQPLSLRPEACRPAAGGAVHTRGLDFACDIYIWAPLAGTCGVLLLSLVITLYCNHRNRKRGRKKLLYIFKQPFMRPVQTTQEEDGCSCRFPEEEEGGCELRVKFSRSADAPAYQQGQNQLYNELNLGRREEYDVLDKRRGRDPEMGGKPRRKNPQEGLYNELQKDKMAEAYSEIGMKGERRRGKGHDGLYQGLSTATKDTYDALHMQALPPR
notes: TRAC and B2M disrupted; also called CTX120 anti-BCMA CAR
As for B1, the binding result in experiment [1] was “binds”; in experiment [2] it was “no binding”.
